The target in assay [1] is IL-17 receptor (immobilised receptor of the first BIAcore experiment of Example 8) (UniProt Q96F46). Put plainly: BIAcore SPR; IL-17 (R&D) at 25 ug/mL over immobilised receptor. On the technique in general: SPR reads the build-up and loss of mass on a sensor chip optically.
Assay [2] shares this target. Kind of assay: BIAcore SPR; conditioned CHO supernatant over immobilised receptor; IL-20 concentration estimated ~25 ug/mL; pC4 vector control medium ~20 RU.

“And” between values parts separate entries of the source, which are not always exact repeats. Equal entries are not always repeated.

On to “recombinant human IL-17 (R&D Systems) (from UniProt Q16552 20-155) (ligand)”, for which the binding response (RU) in assay [1] turned out to be 60 RU.

B1: recombinant human IL-20 expressed in CHO cells (ligand)
chain: RSPKSKRKGQGRPGPLAPGPHQVPLDLVSRMKPYARMEEYERNIEEMVAQLRNSSELAQRKCEVNLQLWMSNKRSLSPWGYSINHDPSRIPVDLPEARCLCLGCVNPFTMQEDRSMVSVPVFSQVPVRRRLCPPPPRTGPCRQRAVMETIAVGCTCIF
On to B1, for which the binding response (RU) in assay [2] is 115 RU and 65 RU.

The values above are taken from US20040096935A1.
